Assay results taken from patent US20260285996 (published 2026).
Values belong to the binder of their own block, whether it stands above or below them.

What was measured:
human BLyS 60-mer = human BLyS 60-mer (human, UniProt Q9Y275); test: SPR
human FcRn = human FcRn (human, UniProt P55899); test: SPR, pH 6.0
human BLyS (BAFF) trimer [1] = biological target: T1, human BLyS (BAFF) trimer (human, UniProt Q9Y275); test: competition, BAFF-R:Fc
human BLyS (BAFF) trimer [2] = biological target: T1, human BLyS (BAFF) trimer; test: competition, BAFFR on CHO-K1 cells
cyno FcRn = biological target: T2, cyno FcRn (cynomolgus monkey); test: SPR, pH 6.0
T2 chain 1: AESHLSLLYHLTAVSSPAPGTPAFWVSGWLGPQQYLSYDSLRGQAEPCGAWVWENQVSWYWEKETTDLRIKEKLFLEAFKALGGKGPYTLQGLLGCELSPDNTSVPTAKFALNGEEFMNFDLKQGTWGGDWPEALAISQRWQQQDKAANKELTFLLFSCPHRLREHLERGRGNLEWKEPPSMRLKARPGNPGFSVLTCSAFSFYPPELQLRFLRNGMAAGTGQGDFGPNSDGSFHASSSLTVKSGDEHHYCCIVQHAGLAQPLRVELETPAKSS
T2 chain 2: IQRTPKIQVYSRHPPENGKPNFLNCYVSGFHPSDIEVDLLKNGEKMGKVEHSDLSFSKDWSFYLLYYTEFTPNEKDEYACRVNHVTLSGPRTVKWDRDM

human BLyS (BAFF) trimer [3] = biological target: T1, human BLyS (BAFF) trimer; test: competition, BCMA:Fc
human BLyS (BAFF) trimer [4] = biological target: T1, human BLyS (BAFF) trimer; test: competition, TACI:Fc

- binding result (human BLyS 60-mer): no binding
B1: Ab363A (antibody, V domains shown)
VH: QVQLQQSGAEVKKPGSSVRVSCKASGGTFNNDAINWVRQAPGQGLEWMGGIFPMFGTAKYSQNFQGRVAITADESTGTASMELSSLRSEDTAVYYCARSRDPLLYPHHALSPWGRGTMVTVSS
VL: SSELTQDPAVSVALGQTVRVTCQGDSLRYYYASWYQQKPGQAPVLVIYGKNNRPSGIPDRFSGSSSGNTASLTITGAQAEDEADYYCSSRDSSGNNWVFGGGTELTVL

- Kd (human FcRn): 753 nM
- IC50 (human BLyS (BAFF) trimer [1]): 0.1 nM
- IC50 (human BLyS (BAFF) trimer [2]): 0.0302 nM
- Kd (cyno FcRn): 760 nM
- IC50 (human BLyS (BAFF) trimer [3]): 0.126 nM
- binding result (human BLyS 60-mer): no binding
- IC50 (human BLyS (BAFF) trimer [4]): 0.2 nM
B2: Belimumab (antibody)
chain 1: not shown
chain 2: SSELTQDPAVSVALGQTVRVTCQGDSLRSYYASWYQQKPGQAPVLVIYGKNNRPSGIPDRFSGSSSGNTASLTITGAQAEDEADYYCSSRDSSGNHWVFGGGTELTVLGQPKAAPSVTLFPPSSEELQANKATLVCLISDFYPGAVTVAWKADSSPVKAGVETTTPSKQSNNKYAASSYLSLTPEQWKSHRSYSCQVTHEGSTVEKTVAPTECS
